Patent US20240034757A1

These substances were tested against CXCL9_HUMAN (human) (UniProt Q07325) (assay: yeast surface display FACS re-test).
Chain of CXCL9_HUMAN (human) (Q07325 23-125 limits assumed): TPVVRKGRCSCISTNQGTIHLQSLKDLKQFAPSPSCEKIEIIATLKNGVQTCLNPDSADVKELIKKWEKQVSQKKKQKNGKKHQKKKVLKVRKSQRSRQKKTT

Substance | % cells over threshold fluorescence [%]
P458_IXORI (from UniProt A0A0K8R7D4 25-90) | 37
P1074_IXORI (from UniProt A0A0K8RDH6 29-96) | 35
P1080_IXORI (from UniProt A0A090XBL6 20-118) | 49
P1086_IXORI (from UniProt A0A0K8RK34 29-94) | 54
P1100_IXORI (from UniProt A0A0K8R556 29-96) | 55
P1124_IXORI (from UniProt A0A0K8RG61 29-83) | 31

What follows are substances tested against CXCL10_HUMAN (human) (UniProt P02778) (assay: yeast surface display FACS re-test).
Chain of CXCL10_HUMAN (human) (P02778 22-98 limits assumed): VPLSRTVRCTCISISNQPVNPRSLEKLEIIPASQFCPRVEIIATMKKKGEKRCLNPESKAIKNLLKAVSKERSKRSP

Substance | % cells over threshold fluorescence [%]
P1096_IXORI (from UniProt A0A0K8RKE4 24-114) | 50
P1134_IXORI (from UniProt A0A0K8RAI0 32-135) | 66

These substances were tested against CXCL12_HUMAN (human) (UniProt P48061) (assay: yeast surface display FACS re-test).
Chain of CXCL12_HUMAN (human) (P48061 22-89 limits assumed): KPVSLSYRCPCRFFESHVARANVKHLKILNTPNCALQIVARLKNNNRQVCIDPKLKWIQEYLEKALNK

Substance | % cells over threshold fluorescence [%]
P1080_IXORI (from UniProt A0A090XBL6 20-118) | 53
P1095_IXORI (from UniProt A0A0K8RCE3 24-112) | 47
